Usually Kd stands for the equilibrium constant for the complex coming apart. A lower Kd goes with higher affinity. Usually koff stands for a measure of how fast the partners let go of each other. A low value points to slow dissociation. What is called kon is a measure of how fast the partners come together. A lower kon goes with slower complex formation.

These results are taken from patent CN116178530A (SHANGHAI JUNSHI BIOSCIENCES CO LTD; JUNMENG BIOSCIENCES CO …, dated 2023).

The target of experiment [1] is Alpha突变株RBD蛋白(货号SPD-C82E6，ACRO Biosystems) (SARS-CoV-2, UniProt P0DTC2 319-537).
Experiment [2] addresses Beta突变株RBD蛋白(货号SPD-C82E5，ACRO Biosystems) (SARS-CoV-2, UniProt P0DTC2 319-537).
Experiment [3] addresses Gamma突变株RBD蛋白(货号SPD-C82E7，ACRO Biosystems) (SARS-CoV-2, UniProt P0DTC2 319-537).
In experiment [4] the target is Kappa突变株RBD蛋白(货号SPD-C82Ec，ACRO Biosystems) (SARS-CoV-2, UniProt P0DTC2 319-537).
Experiment [5] addresses Epsilon突变株RBD蛋白(货号SPD-C82E3，ACRO Biosystems) (SARS-CoV-2, UniProt P0DTC2 319-537).
For experiment [6], the target named is Delta突变株RBD蛋白(货号SPD-C82Ed，ACRO Biosystems) (SARS-CoV-2, UniProt P0DTC2 319-537).
For experiment [7], the target named is SARS-CoV-2的Alpha突变株(B.1.1.7)假病毒的刺突蛋白 (SARS-CoV-2, UniProt P0DTC2 14-1273). The experiment in a line: cell-based or functional assay.
For experiment [8], the target named is SARS-CoV-2的Beta突变株(B.1.351)假病毒的刺突蛋白 (SARS-CoV-2, UniProt P0DTC2 14-1273). The experiment in a line: cell-based or functional assay.
In experiment [9] the target is SARS-CoV-2的Gamma突变株(P.1)假病毒的刺突蛋白 (SARS-CoV-2, UniProt P0DTC2 14-1273). The experiment in a line: cell-based or functional assay.
Experiment [10] deals with SARS-CoV-2的Kappa突变株(B.1.617.1)假病毒的刺突蛋白 (SARS-CoV-2, UniProt P0DTC2 14-1273). The experiment in a line: cell-based or functional assay.
Experiment [11] addresses SARS-CoV-2的Delta突变株(B.1.617.2)假病毒的刺突蛋白 (SARS-CoV-2, UniProt P0DTC2 14-1273). The experiment in a line: cell-based or functional assay.

B1: JS5-10 (antibody, human IgG1, kappa, L234A L235A, V domains shown)
VH: EVQLLESGGGLVQPGGSLRLSCAASGFTFSSYAMSWVRQAPGKGLEWVSAIVGSGGSTYYADSVKGRFIISRDNSKNTLYLQMNSLRAEDTAVYYCAKSLIYGHYDILTGAYYFDYWGQGTLVTVSS
VL: DIQMTQSPSSVSASVGDRVTIPCRASQGIGNWLAWYQQKPGKAPKLLIYAASSLQSGVPSRFSGSGSGTDFTLTISSLQPEDFATYYCQQANSFPPFGQGTRLEIKR
Regarding B1, the dissociation constant Kd came to 1.3 nM in [1]; 0.88 nM in [2]; 1.12 nM in [3]; 0.875 nM in [4]; 1.17 nM in [5]; 0.73 nM in experiment [6]. Further, the koff in experiment [1] turned out to be 0.000316 s⁻¹; in experiment [2], 0.000176 s⁻¹; in experiment [3], 0.000241 s⁻¹; in [4], 0.000172 s⁻¹; in experiment [5], 0.000226 s⁻¹; in experiment [6] it was 0.000161 s⁻¹. Besides, the on-rate constant (kon) in [1] was determined as 243000 M⁻¹ s⁻¹; in experiment [2], 201000 M⁻¹ s⁻¹; in experiment [3], 216000 M⁻¹ s⁻¹; in [4] it was 196000 M⁻¹ s⁻¹; in experiment [5], 193000 M⁻¹ s⁻¹; in [6], 220000 M⁻¹ s⁻¹. The “假病毒中和 IC50 (荧光素酶报告基因, 293-ACE2细胞)” value in experiment [7] came to 1.18 ng/mL; in experiment [8], 8.47 ng/mL; in experiment [9], 0.449 ng/mL; in experiment [10], 5.4 ng/mL; in experiment [11], 5.56 ng/mL.
